Among the data in US11286304B2, “Anti-galectin-7 antibody, kit comprising the same, and uses thereof” (Academia Sinica, priority 2018, dated 2022) are galectin-7 protein expression, IL-6 production and IL-8 production values, retold here.

Holding throughout (type): cell-based, human
One test deals with galectin-7. The test can be described thus: Galectin-7 expression in keratinocytes (real-time PCR, immunoblot). To be noted: HaCaT cells, treated with cytokines for 2 days, immunoblot. Here is the method:
Human keratinocyte cell line HaCaT was maintained at 37° C. in Dulbecco's modified Eagle's medium (DMEM) supplemented with 10% of fetal bovine serum (FBS), 2 mM glutamine, 100 U/ml penicillin and 100 μg/ml streptomycin. Short hairpin RNA (shRNA) reagents were obtained from the National RNAi Core Facility located at the Institute of Molecular Biology and Genomic Research Center, Academia Sinica, supported by the National Core Facility Program for Biotechnology Grants of NSC. Four shRNAs with clone IDs of TRCN0000057393, TRCN0000057394, TRCN0000057395, and TRCN0000057396 were used to generate stable galectin-7 knockdown HaCaT clones. HaCaT cells were infected with one of the four shRNA-expressing lentiviruses and puromycin was employed to select stable cell clones after 3 days of infection. After puromycin selection, four individual pooled clones were cultured in puromycin-free medium for 2 weeks before further analysis. […]
Cells were harvested and lysed in RIPA lysis buffer containing 1% of Triton X-100 and a protease inhibitor cocktail, and total protein concentrations were measured with a protein assay kit. Proteins in the samples of the lysates with the same amounts of total protein were separated by sodium dodecyl sulfate polyacrylamide gel electrophoresis (SDS-PAGE) and analyzed by immunoblotting. […] Protein quantification was performed by software. […]

For the next test, the system named is IL-6. The test can be described thus: IL-6 production by keratinocytes (ELISA). To be noted: HaCaT and HEKn cells subjected to immune stimuli, ELISA. Here is the method: (§1) To measure the concentrations of proinflammatory cytokines secreted by keratinocytes, 2×10^4 cells were seeded in 96-well plates. Cells were incubated for 24 hours and then treated with 50 μg/ml LPS, 100 ng/ml human TNF-α, 100 or 200 ng/ml human IL-17A, 200 ng/ml human IL-22, 100 ng/ml human IL-23, or 50 ng/ml IFN-γ at 37° C. for 48 hours. In addition, the MEK inhibitor PD98059 was added along with stimulation by LPS or IL-17A (48 hours). The supernatants were then collected and analyzed by ELISAs, which were performed using a specific combination of paired antibodies (capture and detection antibodies).
(An ELISA detects its analyte on a solid surface through an enzyme-linked reagent.)

A further test has as its system IL-8. Kind of test: IL-8 production by keratinocytes (ELISA). To be noted: HaCaT and HEKn cells subjected to immune stimuli, ELISA. Here is the method:
as §1

B1: IL-23: cytokine known to promote psoriatic inflammation (protein, UniProt Q9NPF7 20-189; P29460 23-328, looked up)
Interleukin-23 subunit alpha: RAVPGGSSPAWTQCQQLSQKLCTLAWSAHPLVGHMDLREEGDEETTNDVPHIQCGDGCDPQGLRDNSQFCLQRIHQGLIFYEKLLGSDIFTGEPSLLPDSPVGQLHASLLGLSQLLQPEGHHWETQQIPSLSPSQPWQRLLLRFKILRSLQAFVAVAARVFAHGAATLSP
Interleukin-12 subunit beta: IWELKKDVYVVELDWYPDAPGEMVVLTCDTPEEDGITWTLDQSSEVLGSGKTLTIQVKEFGDAGQYTCHKGGEVLSHSLLLLHKKEDGIWSTDILKDQKEPKNKTFLRCEAKNYSGRFTCWWLTTISTDLTFSVKSSRGSSDPQGVTCGAATLSAERVRGDNKEYEYSVECQEDSACPAAEESLPIEVMVDAVHKLKYENYTSSFFIRDIIKPDPPKNLQLKPLKNSRQVEVSWEYPDTWSTPHSYFSLTFCVQVQGKSKREKKDRVFTDKTSATVICRKNASISVRAQDRYYSSSWSEWASVPCS
Turning to B1, the galectin-7 protein expression result with galectin-7 was “modest effects”. For the same molecule, the IL-6 production result in the test on IL-6 is “only IL-17A (FIG. 2), TNF-α, and LPS (data not shown) induced”. Also, the IL-8 production entry in the test with IL-8 is “only IL-17A (FIG. 2), TNF-α, and LPS (data not shown) induced”.

B2: IL-22: immune stimulus (protein, UniProt Q9GZX6 34-179, looked up)
Interleukin-22: APISSHCRLDKSNFQQPYITNRTFMLAKEASLADNNTDVRLIGEKLFHGVSMSERCYLMKQVLNFTLEEVLFPQSDRFQPYMQEVVPFLARLSNRLSTCHIEGDDLHIQRNVQKLKDTVKKLGESGEIKAIGELDLLFMSLRNACI
Turning to B2, the IL-6 production result in the test with IL-6 was “only IL-17A (FIG. 2), TNF-α, and LPS (data not shown) induced”. The IL-8 production entry with IL-8 was “only IL-17A (FIG. 2), TNF-α, and LPS (data not shown) induced”.
